Measured values: the supplement of paper PMC10567573

B1: SAT2 (parent)
chain: LTEAEGWHFFCFQGEATRKLAGK
B2: RSPH3 (parent)
chain: FIPAKTGKDVATQILEGELFDFDL

Variants of: B1
Experiment: protein stability index of a GFP-peptide fusion (GPS, HEK-293T) (PSI 1-6); higher = more stable
Details: c terminus: native
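Note: lentivirally expressed fusions sorted by FACS into six bins by GFP to DsRed ratio, PSI derived from sequencing read proportions per bin multiplied by bin number.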

Protein stability index, by site and new letter:
E15: P 1.97 | S 1.74 | T 2.72 | W 1.77 | Y 2.69
A16: C 2.46 | D 3.16 | E 2.79 | F 1.59 | G 2.38 | H 2.63 | I 1.64 | L 3.02 | M 2.1 | N 2.67 | P 2.33 | Q 2.58 | R 1.98 | S 2.12 | T 1.68 | V 2.3 | W 1.08 | Y 2.03
T17: C 1.8 | D 2.79 | E 2.7 | F 1.61 | G 2.15 | H 1.77 | I 1.35 | L 2.04 | M 2.46 | N 2.53 | P 3.05 | Q 2.63 | R 2.26 | S 1.48 | V 2.21 | Y 2.01
R18: A 2.09 | C 1.92 | D 3.15 | F 1.5 | G 2.07 | H 2.3 | I 3.84 | K 2.8 | L 1.53 | M 1.71 | N 2.59 | P 2.58 | Q 1.87 | T 2.03 | V 1.5 | Y 2.21
K19: A 2.35 | C 2.41 | D 2.76 | E 2.68 | F 1.94 | G 2.25 | H 2.58 | I 2.39 | L 2.93 | M 1.89 | N 2.93 | P 2.1 | Q 1.69 | R 2.23 | T 2.05 | W 2 | Y 2.11
L20: A 2.36 | D 2.99 | E 3.6 | F 1.97 | G 3.47 | H 2.64 | I 2.34 | K 3.3 | M 2.91 | N 3.41 | P 3.22 | Q 3.29 | R 3.66 | S 2.94 | T 3.52 | V 1.98
A21: C 2.57 | D 2.73 | E 2.25 | F 1.77 | H 3.24 | I 3.52 | K 2.5 | L 1.33 | M 1.91 | N 2.55 | P 1.99 | Q 3.17 | R 1.71 | S 2.16 | T 2.71 | W 2.34 | Y 2
G22: A 1.5 | C 1.07 | D 2.64 | E 2.54 | F 1.8 | H 2.48 | I 1.91 | K 2.7 | L 1.81 | M 1.6 | N 2.67 | P 2.47 | Q 3.22 | R 3.52 | S 1.8 | T 2.27 | V 3.23 | W 2.17 | Y 2.39
K23: C 2.15 | D 2.06 | H 1.49 | I 2.17 | L 1.86 | M 1.01 | N 2.85 | P 2.41 | Q 2.81 | R 1.51 | S 2 | T 2.33 | V 1.49

Variants of: B2
Experiment: as above
Details: c terminus: a fixed tail appended

Protein stability index, by site and new letter:
D9: C 2.43 | T 1.77 | V 2.29 | I 1.42 | Q 1.68 | A 1.25 | Y 2.06 | P 1.78 | E 1.81 | K 1.65 | S 1.82
D21: N 1.53 | E 1.49 | R 1.8 | T 3.06 | S 2.54 | Q 1.53 | A 2.33 | K 1.96 | W 3.1
A4: G 2.48 | T 1.96 | H 1.62 | Y 1.54 | F 2.33 | S 1.64 | E 2.51 | C 2.08
E16: K 2.11 | W 2.07 | D 1.86 | Y 2.01 | N 2.34
G17: S 1.56 | P 1.37 | A 2.14 | H 2.34 | F 2.72 | D 1.75 | L 1.48 | E 3 | I 2.31 | M 1.71
T6: S 1.71 | P 1.42 | C 1.29 | M 1.59 | L 1.87 | G 2.12 | K 2.22
K8: S 1.93 | Y 2.27 | H 1.9 | T 1.6 | V 2.52 | N 2.06 | C 2.58 | A 2.13
G7: Q 1.97 | H 2.08 | I 1.96 | E 2.08 | L 2.12 | D 2.46 | C 1.79 | A 1.83 | Y 1.88 | V 2.2 | P 2.82
L19: Q 1.66 | N 1.93 | G 2.31 | I 2.05 | W 1.96 | T 2.28 | C 1.83 | F 1.7
F20: K 2.08 | T 2.13 | C 2.16 | M 1.88 | E 2.6 | W 2.26 | R 1.86 | V 2.71 | I 1.72 | S 2.52 | A 2.47 | Q 2.44
V10: G 1.98 | P 1.61 | F 1.9 | L 2.63 | K 1.54 | C 1.67 | T 2.08 | S 1.29
K5: V 1.72 | T 2.15 | N 2.71 | Y 1.88 | S 2.01 | I 1.63 | R 1.75 | W 1.57 | Q 2.21
Q13: I 2.43 | W 1.95 | M 1.67 | A 1.43 | K 1.78
E18: T 2.62 | S 2 | P 1.87 | I 2.6 | W 1.95 | G 1.71 | M 2.73 | F 3.44
T12: E 2.04 | W 3.27 | M 2.18 | F 2.73 | S 1.82 | C 2.02 | G 1.7 | L 2.18
F1: V 3.54 | H 4.32 | A 4.14 | Q 4.69 | I 3.89 | R 4.15 | D 4.77 | W 2.66 | M 3.93 | C 3.55
L15: S 2.03 | C 1.85 | D 2.58 | I 1.87 | V 1.94
D23: H 1.87 | E 1.89 | G 2.02 | Q 1.99 | R 1.42
P3: A 2.27 | N 2.24 | F 2.2 | M 1.6 | V 1.59 | R 1.94 | L 2.71 | T 2.24
L24: H 2.68 | M 2.23 | D 3.04 | T 2.39 | R 2.31 | I 2 | G 2.75 | S 2.36 | Y 1.75 | A 2.67
F22: A 2.31 | R 2.42 | N 2.87 | S 2.86 | E 3.2 | V 2.21
A11: V 1.94 | S 1.87 | L 1.27 | T 1.91 | F 2.13 | I 2
I14: M 2.75 | V 2.2 | S 1.41 | H 2.05 | Y 2.47 | L 2.27 | N 1.57 | D 2.94
I2: N 2.83 | L 3.02 | R 3.72 | C 1.55 | A 1.79 | H 2.02 | S 2.84 | T 2.85 | E 4.16 | Y 2.96 | G 3.73 | V 2.26
